These results are taken from US8729028B2, “Noggin-derived peptide and use thereof” (Caregen Co., Ltd., priority 2009, dated 2014).

For data set [1], the target named is T1, rh-BMP4 protein (Homo sapiens, UniProt P12644).
T1 construct: purchased R&D Systems, Inc., USA
T1 sequence (P12644 293-408): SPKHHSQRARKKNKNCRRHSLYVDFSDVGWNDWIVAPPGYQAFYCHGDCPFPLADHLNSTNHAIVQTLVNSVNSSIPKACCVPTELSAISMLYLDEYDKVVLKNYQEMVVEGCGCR
Kind of data set: Streptavidin chromatography with SDS-PAGE and western blot (immunobinding to BMP4). As to conditions: streptavidin column, elution with NaCl, western blot with anti-BMP4 antibody (FIG. 8b). The class given is binding. As to the method: The N-terminus of the peptide prepared in Synthesis Example was modified with biotin (Sigma, USA). For streptavidin chromatography, the biotinylated peptide was loaded in a column packed with streptavidin-attached resin and equilibrated with 20 mM sodium phosphate buffer. Then, after flowing rh-BMP4 protein (R&D Systems, Inc., USA) through the column, 200 mM sodium phosphate buffer was flown to flush unbound protein and the protein bound to the biotinylated peptide was fractionated by eluting with 0.2 M NaCl. The eluate was analyzed by SDS-PAGE (see FIG. 8a) and it was confirmed whether the BMP4 protein binds with the biotinylated peptide by western blotting using anti-BMP4 antibody (Santa Cruz, USA) (see FIG. 8b).

The nature of data set [2]: Thermal stability at 37° C. in phosphate buffer, HPLC quantification. The class given is physicochemical. As to conditions: 0.11 mg/mL phosphate buffer, days 0-70, compared with reference Noggin (FIG. 9). As to the method: The peptide prepared in Synthesis Example and a reference growth factor (Noggin, FGF-10) purchased from NIBSC (UK) were prepared to 0.11 mg/mL phosphate buffer solutions. 1 mL of each prepared solution was put in a glass vial and kept at 37° C. The solution was sampled on days 0, 5, 10, 20, 30, 40 and 70. After centrifugation to remove any denatured peptide or protein, the supernatant was subjected to HPLC for quantification (FIG. 9).

The target of another data set is T2, BMP-4 (Homo sapiens, UniProt P12644).
T2 construct: purchased R&D Systems, Inc., USA
T2 sequence (P12644 293-408): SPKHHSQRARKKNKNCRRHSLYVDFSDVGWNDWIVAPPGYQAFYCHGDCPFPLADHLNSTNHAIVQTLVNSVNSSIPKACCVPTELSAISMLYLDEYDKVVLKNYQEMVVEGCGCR
In words: Melanin production in α-MSH-induced, BMP-4-treated melanocytes (antagonistic activity against BMP-4). The note with it: for melanin production: C57BL/6 mouse melanocytes, 200 μg/mL α-MSH, 1 μg/mL BMP-4, cultured 3 days, observed with naked eyes (FIG. 5). The format is cell-based. The procedure:
In order to investigate the antagonistic activity of the peptide synthesized in Synthesis Example against the growth factor BMP-4, C57BL/6 mouse melanocytes (Jung Ang Lab. Animal, Korea) were cultured and melanin production was induced with α-melanocyte stimulating hormone (α-MSH; Sigma). Then, after treating with BMP-4 (R&D Systems, Inc., USA) and then immediately with the synthesized peptide at different concentrations, it was checked whether the melanin production inhibited by BMP was activated again. The mouse melanocytes were cultured using DMEM (Sigma) containing 10% FBS (Sigma) at 37° C. under 5% CO2. After culturing the cells on a 24-well plate at 1×10^5 cells/well and confirming attachment of the cells, the cells were treated only with a solvent (control), with 200 μg/mL α-MSH (positive control) or with 1 μg/mL BMP-4. Then, the cells were treated with the peptide of SEQ ID NO: 1. After adding the test substance to each dish, the cells were cultured for 3 days. The test substance had been prepared by dissolving the ingredients in a solvent and diluting to the test concentration using a 5:3:2 mixture solvent of propylene glycol:ethanol:purified water. After removing the medium by centrifugation, the production of melanin could be observed with naked eyes.
For more accurate measurement, cells were washed with PBS and lysed with 1 N sodium hydroxide. Then, after measuring absorbance at 400 nm, inhibition of melanin production was calculated according to the Dooley's method (Dooley, T. P. et al., Skin Pharmacol. 7: 188-200 (1994)), and the result was shown in FIG. 6. The result shown in FIG. 6 coincides with that of FIG. 5.

The test system of the next data set is HaCaT keratinocytes. Kind of data set: SRB colorimetric assay of cellular growth, keratinocytes. As to conditions: peptide 100 ng/mL, 72 hours, SRB absorbance 590 nm and microscopy (FIGS. 2a, 3). The class given is cell-based. As to the method:
(§1) To analyze the growth factor-like effect of the peptide synthesized in Synthesis Example, sulforhodamine B (SRB) calorimetric assay was carried out using HaCaT keratinocytes (Korean Cell Line Bank) and NIH3T3 fibroblasts (Korean Cell Line Bank) according to Rizzino et al.'s method (Rizzino et al. Cancer Res. 48: 4266 (1988)).
(§2) HaCaT keratinocytes and NIH3T3 fibroblasts were cultured respectively in a 250-mL tissue culture flask in Eagle's minimal essential media (EMEM; Gibco, U.S.A.) containing 10% fetal bovine serum (FBS; Sigma). The cultured cells were treated with 0.25% trypsin solution to detach the cells from the bottom of the culture flask and centrifuged to collect cell pellets. They were resuspended in FBS-free EMEM and added to each well of a 96-well tissue culture plate, with 4×10^3 cells per well. The cells were cultured under 7% CO2 for 24 hours at 37° C. 24 hours later, the medium was changed with fresh, FBS-containing medium and the cells were incubated for 72 hours under the same conditions as described above with blank sample as reference or with the sterilized synthetic peptide (100 ng/mL) dissolved in water and 10% DMSO. After removing the supernatant, the cells were washed once with phosphate buffered saline (PBS). […] In addition, absorbance was measured at 590 nm to analyze cell proliferation.
(In general: In SRB staining, fixed cells bind dye roughly in proportion to their protein.)

A further data set concerns NIH3T3 fibroblasts. Kind of data set: SRB colorimetric assay of cellular growth, fibroblasts. The class given is cell-based. The note with it: NIH3T3, peptide 100 ng/mL, 72 hours, SRB absorbance 590 nm and microscopy (FIGS. 2b, 3). As to the method:
as §1, §2

The subject of the next data set is HaCaT cells. Kind of data set: Laminin and hyaluronic acid production (ELISA kits). The class given is cell-based. As to conditions: 72 hours after treatment. As to the method:
HaCaT cells cultured for 48 hours were treated with the peptide synthesized in Synthesis Example. 72 hours later, the level of laminin and hyaluronic acid was measured as an indicator to show the improvement in skin wrinkles. The measurement was made using a laminin ELISA kit (Takara, Japan) and a hyaluronic acid ELISA kit (Takara, Japan).
Background: ELISA stands for enzyme-linked immunosorbent assay.

Data set [3] has as its target T1, rh-BMP4 protein. In words: Biacore binding of peptide to immobilised BMP4. The note with it: CM5 sensor chip, 6000 RU rh-BMP4, peptide 4-1000 μg/mL (FIG. 7). The procedure:
(§3) In order to investigate whether the peptide synthesized according to the present disclosure binds to the BMP protein, the Biacore instrument allowing the detection of binding between drugs and receptors was used.
(§4) 6000 response units (RU) of rh-BMP4 protein (R&D Systems, Inc., USA) was fixed to a commercially available CM5 sensor chip (Biacore, Sweden) by amination. Then, HBS-EP buffer (Biacore, Sweden) was flown at a rate of 5 μL/min to activate the BMP4 protein on the CM5 sensor chip. After optimization for reaction, the synthesized peptide was flown at different concentrations (1000 μg/mL, 500 μg/mL, 250 μg/mL, 125 μg/mL, 62.5 μg/mL, 31.3 μg/mL, 15.6 μg/mL, 7.8 μg/mL, 4 μg/mL). The binding between BMP4 and the synthetic peptide could be identified from the increase in RU value.
(Surface plasmon resonance follows binding to a sensor surface in real time, without labels.)

In another data set the test system is C57BL/6 mouse. In words: Hair growth on depilated back skin of mouse. The format is in vivo. The note with it: C57BL/6 mouse back, 10 μL of 1 μg/μL on days 0, 2 and 4, observed for 10 days, against PBS (FIG. 10). As to the method:
In order to investigate the hair growth promoting effect of the peptide synthesized in Synthesis Example, hair of the back of a mouse (C57BL/6, Jung Ang Lab. Animal, Korea) was partially removed using hair removal cream. 10 μL of the peptide of SEQ ID NO: 1 (1 μg/μL) was administered or applied on the upper portion of the back of the mouse, and 10 μL of PBS was administered or applied on the lower portion of the back of the mouse, on days 0, 2 and 4.

In data set [4] the target is T3, rh-BMP4 protein (R&D Systems, Inc., USA) (human, UniProt P12644 293-408).
T3 construct: Bought protein; also called BMP protein
T3 sequence (looked up): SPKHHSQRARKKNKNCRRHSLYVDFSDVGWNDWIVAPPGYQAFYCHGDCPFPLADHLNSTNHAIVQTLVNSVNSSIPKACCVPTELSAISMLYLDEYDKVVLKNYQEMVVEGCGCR
In words: SPR (Biacore), rh-BMP4 fixed on a CM5 chip, peptide flown at 4-1000 µg/mL. The procedure:
as §3, §4

Where no end group is shown, it is not given here. The star is where a group is joined. Biotin = O=C1N[C@H]2[C@H](CS[C@H]2CCCCC(=O)*)N1

With “Glu-Leu-Ile-Glu-His (SEQ ID NO:2)-Linker-Arg-Pro-Ala-Asp (SEQ ID NO:3) peptide (linker=Gly-Gly-Gly) (ELIEHGGGRPAD; listed as Homo sapiens) [SEQ ID NO: 1, noggin-derived peptide]”, in the data set with rh-BMP4 protein [1], the “binding of BMP4 protein to peptide” value is “very strongly binds”. Also, the thermal stability result in data set [2] is “much superior thermal stability to the existing noggin peptide”. In the data set with BMP-4, the melanin production result is on record as “melanin production comparable to that of the α-MSH-treated group”. In addition, the BMP-4 activity entry in the data set with BMP-4 (inferred from restored melanin production in BMP-4-treated mouse melanocytes (FIG. 5)) is reported as “appropriately inhibits the BMP-4 activity”. Besides, the growth of keratinocytes entry in the data set on HaCaT keratinocytes is listed as “promote the growth”. In addition, the growth of fibroblasts entry with NIH3T3 fibroblasts is on record as “promote the growth”. Further, the “production of hyaluronic acid” value in the data set on HaCaT cells (hyaluronic acid ELISA kit (FIG. 4b)) was “increases the production”. The production of laminin entry with HaCaT cells (laminin ELISA kit (FIG. 4a)) was “increases the production”. Besides, in the data set with rh-BMP4 protein [3], the “binding to BMP4 (increase in RU value)” value was “very strong binding ability”. In addition, the hair growth result in the data set with C57BL/6 mouse is reported as “effective in promoting hair growth”.

On to “biotinylated peptide: The N-terminus of the peptide prepared in Synthesis Example was modified with biotin (Biotin-ELIEHGGGRPAD)”, for which the “binding of BMP4 protein to peptide” value with rh-BMP4 protein [1] is reported as “bound”.

With “α-melanocyte stimulating hormone [α-MSH, reference compound]”, the melanin production entry on BMP-4 is recorded as “abrupt increase in melanin production”.

B1: Glu-Leu-Ile-Glu-His (SEQ ID NO:2)-Linker-Arg-Pro-Ala-Asp (SEQ ID NO:3) peptide (linker=Gly-Gly-Gly) (SEQ ID NO:1) (peptide)
peptide: ELIEHGGGRPAD
notes: Made by solid-phase synthesis; The synthesis text describes an acetylation step with acetic anhydride after the last Fmoc removal; However, the printed theoretical weight of 1250.35 matches the peptide without an acetyl group, so no N-terminal acetyl is entered; also called synthesized peptide
On to B1, for which, in data set [4], the binding result is “binds”.
